Reference: article PMC2225448
Square brackets hold non-standard residues; d marks the D form. Ends that are not written are not given here. pY = N[C@@H](Cc1ccc(OP(=O)(O)O)cc1)C(=O)O

Biological target: SOCS4-ElonginC-ElonginB ternary complex (human), Q8WXH5
Experiment: ITC; 0.3-0.4 mM peptide injected into 15 μM protein; 50 mM HEPES (pH 7.5), 150 mM NaCl, 1 mM DTT, 20°C; blank titrations subtracted; single binding site model
Settings: remark: other sources report otherwise

Sequence of SOCS4-ElonginC-ElonginB ternary complex (human), Q8WXH5 (Q8WXH5 274-437, chain 1 of 3): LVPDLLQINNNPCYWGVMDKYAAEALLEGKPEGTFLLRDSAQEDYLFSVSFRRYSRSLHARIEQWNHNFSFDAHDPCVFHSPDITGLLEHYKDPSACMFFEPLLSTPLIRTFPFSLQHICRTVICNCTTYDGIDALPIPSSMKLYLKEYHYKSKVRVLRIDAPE
Sequence of SOCS4-ElonginC-ElonginB ternary complex (human), Q8WXH5 (Q15369 17-112, chain 2 of 3, further chain): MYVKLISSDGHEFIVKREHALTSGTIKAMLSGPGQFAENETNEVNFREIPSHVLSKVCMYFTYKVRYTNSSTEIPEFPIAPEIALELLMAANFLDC
Sequence of SOCS4-ElonginC-ElonginB ternary complex (human), Q8WXH5 (Q15370 whole entry, chain 3 of 3, further chain): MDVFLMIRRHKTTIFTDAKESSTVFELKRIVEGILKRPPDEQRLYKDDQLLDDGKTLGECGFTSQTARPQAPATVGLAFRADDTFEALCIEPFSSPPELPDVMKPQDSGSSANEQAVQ

Binder: ASFE[pY]TILDPS [EpoR pY402 peptide ASFE(pY)TILDPS]
- Ka: 130000 M⁻¹
- Kd: 7.7 µM
- dH: -14.5 kcal/mol
- stoichiometry N: 0.71
